Variants at the floor of the assay were thinned out.
B1: TPR 5TU (parent)
chain: GGAUCUUCUCGAUCUAACAAAAAAGACAAAUCUGCCACAAAGCUUGAGAGCAUCUUCGGAUGCAGAGGCGGCAGCCUUCGGUGGCGCGAUAGCGCCAACGUUCUCAACUAUGACACGCAAAACGCGUGCUCCGUUGAAUGGAGUUUAUCAUG

Variants of: B1
Test: polymerase ribozyme fitness, log enrichment relative to wild type (log ratio); higher = more active; in vitro selection for triplet polymerase activity
Outline: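 The heterodimeric triplet polymerase ribozyme's subunits were each mutagenized into PCR-built libraries and transcribed. Every library was selected once, in triplicate, by annealing with a biotinylated primer, the partner subunit and triplets, incubating frozen at −7 °C, gel-excising extended constructs, capturing on streptavidin beads and running RT-PCR. Input and output libraries were Illumina-sequenced, with genotypes kept only at ≥10 input reads and ≥1 read per output. Fitness, from inverse-variance-weighted replicate averages, is the base-2 logarithm of genotype enrichment over wild-type enrichment.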

Row | Variant | polymerase ribozyme fitness (log ratio)
1 | C8U A20G A24C A40C G50C G71C A89C C93U | ≤ -4.2
2 | U7G A20C C38A G83A | -3.16
3 | C8A A28C A30G C96A U127G | ≤ -4.2
4 | C8G A39C U77C U104G A115C | ≤ -4.2
5 | U9A U53C A64U C87A G136U A150G | ≤ -4.2
6 | U6C U55G | -0.825
7 | C8U C38G A60C A107G G141C U151C | ≤ -4.2
8 | C8A A17G A21U C38U G86A C99G G126U U139G | ≤ -4.2
9 | U6G U53A G80U | ≤ -4.2
10 | C8A C87A C99U | ≤ -4.2
11 | C8A G94A C95A | ≤ -4.2
12 | U7G A21U | -2.97
13 | U9A C27G A73U C93U U102G G117C | ≤ -4.2
14 | U7G A22G C36A U56G G62U G88A | ≤ -4.2
15 | U6G G62C U82G | -0.631
16 | U7C C35U C87G U104G | -4.04
17 | C8G A23C A30U G59A C95A A119U G141C | ≤ -4.2
18 | U9A A60U U61C C72U C93U | ≤ -4.2
19 | C8U A142C | -3.25
20 | U9A A12U C114A C125A | ≤ -4.2
21 | C8G G48C | -4.08

Row | Variant | polymerase ribozyme fitness (log ratio)
22 | C8U A22U A40U A47C | ≤ -4.2
23 | U7C U53A | -2.82
24 | C8G U15G A17G C18U A20C C32G A73G C93U C125U | ≤ -4.2
25 | U7G C27U A37G C43A C57A G94A | ≤ -4.2
26 | C8A A20C A22G G42C U53A C95U | ≤ -4.2
27 | U7A U9G | -3.64
28 | U7G C14G U55G G58U G80C A107G C118U G140C | ≤ -4.2
29 | U7A A29G C85A C114A A121G U134C | ≤ -4.2
30 | C8A G70C A89G G94C C116A A137G | ≤ -4.2
31 | C8A G83C C85G G140C A150C | ≤ -4.2
32 | C8U A16C A19U G59U A60G C93U | ≤ -4.2
33 | U6G U15A A20G C87U | -0.616
34 | U6G C35U A91G A98G | -4.08
35 | U6G C10G G68A C69U G84A | ≤ -4.2
36 | C8A A12G U13G C51A C57A G92U G124C U144C | ≤ -4.2
37 | U7G A17C A142U U146C | -3.89
38 | C8G G83A C99U | ≤ -4.2
39 | U6G U7C A49G G71A C93G | ≤ -4.2
40 | C8G A16U A37C A73C G84A U139C | ≤ -4.2
41 | U7G A39U C69U C95U C129G | ≤ -4.2
42 | U6G C14A C79A U145C | ≤ -4.2

Row | Variant | polymerase ribozyme fitness (log ratio)
43 | U9A A12U C32U A37U G92C | ≤ -4.2
44 | C8A U15C C75A U109C | ≤ -4.2
45 | U6G A98U | -0.985
46 | U6G A142U | -0.0461
47 | U9C A119U | ≤ -4.2
48 | C8U C51A A60U C87U | ≤ -4.2
49 | U7G U31A C57U G94C U135C G140U U148C | ≤ -4.2
50 | U7A C72G G80C C96U U104C A122G U146A | ≤ -4.2
51 | U6G A39G A49C | ≤ -4.2
52 | U6G A40U A115G | -1.66
53 | U7A C14G U15G G88A | -3.61
54 | U6G A22U C87U | 0.101
55 | U7G C51U G88C G92U C95U G100U | ≤ -4.2
56 | U9C A37C A40G U53A C75U U77A A119U | ≤ -4.2
57 | C8G A91U A142U | -3.92
58 | C8A C51A C57A G59A U61A G67C C95U C125U U134C U139A | ≤ -4.2
59 | C8A U15G G59C C114U A138G | ≤ -4.2
60 | C8A C96A A110U U111G | ≤ -4.2
61 | C8G A16U C36G | ≤ -4.2
62 | U7G C125U | -3.39
63 | U6C U78G U111G U134C | -4.14

Row | Variant | polymerase ribozyme fitness (log ratio)
64 | U6G A19G U44A U82C C95U U139G | ≤ -4.2
65 | U7A G42A C85U A113U C116U C125G | ≤ -4.2
66 | U7A A28C C57U C87G C95U C125A | ≤ -4.2
67 | C8U U15A A41U C85A G126A | -4.06
68 | U7A G62C | ≤ -4.2
69 | U7C U53A C85U | -3.46
70 | U7A G11A C32U C35G A41U U55A C87G C95A C114U | ≤ -4.2
71 | U7A A29C A41U G94C | ≤ -4.2
72 | U7A C63U A73G A120G U146A | ≤ -4.2
73 | U9C A21U A28C G50C G94U U102C | -4.16
74 | U9A G59A C87A | ≤ -4.2
75 | C8G A47C G81C G84C G86U | ≤ -4.2
76 | C8G A39U G46U G68C C79U G83A U102A | ≤ -4.2
77 | U7G A23C A47C U53A C116A | ≤ -4.2
78 | C8A C57G U82A A98G | ≤ -4.2
79 | U7G U56A G59C U78C | -2.83
80 | C8U A26G U56A C76G C105U A106C C123U | ≤ -4.2
81 | C8A A17G A98G U144A | ≤ -4.2
82 | U9A A28U A66G C79G C93U | ≤ -4.2
83 | U7A A64U G74A C79A C85A G94U U130G | ≤ -4.2
84 | C8A C36U G62U C95G A115U | ≤ -4.2
